From patent US20190300603A1 (CRESCENDO BIOLOGICS, published 2019)

Target: T1, recombinant human IL-17A (human, UniProt Q16552 24-155)
T1 construct: also called Peprotech cat# AF-200-17
T1 sequence: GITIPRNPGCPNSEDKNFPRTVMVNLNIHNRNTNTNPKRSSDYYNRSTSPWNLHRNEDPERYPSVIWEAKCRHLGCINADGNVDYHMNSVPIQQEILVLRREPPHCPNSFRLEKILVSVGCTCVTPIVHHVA
Assay: ELISA

binding result: binds
B1: VH domain as identified in SEQ ID NO: 1 (optimised anti-IL-17A single VH domain antibody) (VHH)
VHH: EVQLVESGGGLVQPGGSLRLSCAASGFTFSSYSMYWVRQAPGKGLEWVAEIKQDGSVQYYVSDVKGRFTISRDNAKNSLYLQMNSLRAEDTAVYYCAKGEILPLYFDYWGQGTLVTVSS
notes: Human VH single domain antibody (Humabody VH) without a light chain, from Tg/TKO mice and then optimised
